Biological target: T1, human TIGIT (human, UniProt Q495A1 22-141)
T1 construct: also called hTIGIT
T1 sequence (looked up): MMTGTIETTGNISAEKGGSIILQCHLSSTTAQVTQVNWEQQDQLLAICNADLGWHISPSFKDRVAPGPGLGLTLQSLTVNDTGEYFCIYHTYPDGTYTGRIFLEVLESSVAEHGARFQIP
Test: SPR, captured by anti-human Fc, hTIGIT analyte
Excerpt: The sensorgrams for reference channel Fc1 and buffer channel were subtracted from the test sensorgrams.

- Kd: 0.0595 nM
B1: Tiragolumab (antibody, human IgG1, kappa, V domains shown)
VH: EVQLQQSGPGLVKPSQTLSLTCAISGDSVSSNSAAWNWIRQSPSRGLEWLGKTYYRFKWYSDYAVSVKGRITINPDTSKNQFSLQLNSVTPEDTAVFYCTRESTTYDLLAGPFDYWGQGTLVTVSS
VL: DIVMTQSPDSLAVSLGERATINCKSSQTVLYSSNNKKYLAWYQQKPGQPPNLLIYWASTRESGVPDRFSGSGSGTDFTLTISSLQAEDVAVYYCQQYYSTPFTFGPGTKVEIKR
notes: also called anti-TIGIT antibody; control antibody

— patent US20230136331A1 (ILDONG PHARMACEUTICAL, published 2023)
